8 molecules from publication PMC6340165, “A GntR Family Transcription Factor in Streptococcus mutans Regulates Biofilm Formation and Expression of Multiple Sugar Transporter Genes” can be followed below.

The target in data set [1] is T1, StsR (GntR family regulator) (Streptococcus mutans UA159) (UniProt Q8DTX4).
T1 sequence: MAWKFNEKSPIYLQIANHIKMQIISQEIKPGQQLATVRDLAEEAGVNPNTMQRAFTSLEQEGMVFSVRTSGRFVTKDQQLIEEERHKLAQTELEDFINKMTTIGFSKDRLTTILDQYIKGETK
In words: EMSA. The following applies: 50 mM Tris/HCl, 10 mM NaCl, 0.5 M Mg acetate (so in the source), 0.1 mM EDTA, 5% glycerol, 30 min, 10 uL; 4% native PAGE in 0.5x TBS; pH and binding temperature not ….

For data set [2], the target named is T1, StsR (GntR family regulator) (Streptococcus mutans UA159). Put plainly: DNase I footprinting. The following applies: 50 mM Tris/HCl, 10 mM NaCl, 0.5 M Mg acetate (so in the source), 0.1 mM EDTA, 5% glycerol, 30 min, 10 uL; 4% native PAGE in 0.5x TBS; pH and binding temperature not ….
In data set [3] the target is StsR (GntR family regulator) (Streptococcus mutans UA159, UniProt Q8DTX4 1-123). Put plainly: EMSA; 10-40 pmol StsR; 50 mM Tris/HCl, 10 mM NaCl, 0.5 M Mg acetate (so in the source), 0.1 mM EDTA, 5% glycerol, 30 min, 10 uL; 4% native PAGE in 0.5x TBS; pH and binding temperature not stated (DNase I digestion at 28 C). To be noted: protein: recombinant; tags: His6 (pET28a); chain copies: 2; label: FITC; annealed with reverse complement.

Take “AAGTGTCTCCTTCTACTTTTTAATAAAATAGTATTGTTTACTCAAATAATCACCTTGCGGCATATCAATGGTCAATCCCGCATACATTAACTCCGCA (double strand) [multiple sugar-binding ABC transporter promoter]”: in data set [1], the binding entry is listed as “binds”.
As to “CAAATTTTGGCAAAACTTTTGTGCCAAAATTTGAGTTTTATTAGAAAATGAAAAATGTTACAGTAGTTTTAGAATAAAAAGGAGGGGATTTCTGATGGAACGAAAATCTTCATTGAAGGTTCGGGTACA (double strand) [mannitol-specific PTS promoter]”, in data set [1], the binding result is reported as “binds”.
On to “CAGGGATATGAAAATGACAAATGACACTGCAAAAGCGTTTTCAAAAAATGTAAAATAAAAATGAAATAAAAAAGAAAGTAGGGTGTATTC (double strand) [mannose-specific PTS promoter]”, for which the binding result in data set [1] was “binds”.
Consider “CTTATAAAGTAATTTAATATCTTGATGAAATTTTAAAAAAACTTGACATTTTTCGCAAACGATTGCATAATATTATTGTAACAAAAATTACAAAGAAATTTCAGGAGGAAATCGCT (double strand) [maltose ABC transporter promoter]”, for which the binding entry in data set [1] was “binds”.
As to “CTTCTGTCTCCTTAAGATCTACTTACTTTTATTATACTACAAATCCTTAAAATCCTCTTACTCTTTCATTTAATTCTACTAAATCTCATCAGTCTAAATTTACCACTTGACAATATTTTACTATAATTGTATTATATATATAACACAATTATACACTGCACTTTAGAAAGGAGAAAAAATGGCT (double strand) [stsR p2 FITC]”, the binding result in data set [2] is listed as “binds”.
In the case of “CTTCTGTCTCCTTAAGATCTACTTACTTTTATTATACTACAAATCCTTAAAATCCTCTTACTCTTTCATTTAATTCTACTAAATCTCATCAGTCTAAATTTACCACTTGACAATATTTTACTATAATTGTATTATATATATAACACAATTATACACTGCACTTTAGAAAGGAGAAAAAATGGCT (double strand) [stsR p2]”, the binding entry in data set [1] is “binds”.

B1: stsR p3mut (dsDNA)
DNA 1: CCACTTGACAATATTTTACTCCACCTGTCCTCCATATATAACAC
DNA 2: GTGTTATATATGGAGGACAGGTGGAGTAAAATATTGTCAAGTGG
As to B1, the binding result in data set [3] was “no binding”.

B2: stsR p3 (dsDNA)
DNA 1: CCACTTGACAATATTTTACTATAATTGTATTATATATATAACAC
DNA 2: GTGTTATATATATAATACAATTATAGTAAAATATTGTCAAGTGG
For the molecule B2, in data set [3], the binding result is on record as “binds”.
